# Measurements from the RNAGym collection of RNA variant scans (doi:10.1073/pnas.2313332121).
# This sample holds only a part of the variants without activity.
# B1: TPR 5TU (parent)
# chain: GGAUCUUCUCGAUCUAACAAAAAAGACAAAUCUGCCACAAAGCUUGAGAGCAUCUUCGGAUGCAGAGGCGGCAGCCUUCGGUGGCGCGAUAGCGCCAACGUUCUCAACUAUGACACGCAAAACGCGUGCUCCGUUGAAUGGAGUUUAUCAUG
# Variants of: B1
# Assay: polymerase ribozyme fitness, log enrichment relative to wild type (log ratio); higher = more active; in vitro selection for triplet polymerase activity
# Method in brief: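 Input and output libraries were sequenced on Illumina after a single in vitro selection round, run in triplicate on PCR-built, transcribed mutant libraries of each subunit of a heterodimeric triplet polymerase ribozyme. Selection annealed libraries to a biotinylated primer, the partner subunit and triplets, incubated them frozen at −7 °C, then gel-excised extended constructs for streptavidin-bead capture and RT-PCR. Genotypes with ≥10 input reads and ≥1 read per output were kept. Fitness is the logarithm, taken in base 2, of genotype enrichment divided by wild-type enrichment, using inverse-variance-weighted replicate averages.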
row,Variant,polymerase ribozyme fitness (log ratio)
1,U15G A47C C57U C96A C108G,≤ -4.2
2,G86U A120G C129A U145G,-4.13
3,A29U A60G C76A,≤ -4.2
4,A30U C32U G48A C51U U56G C76U,≤ -4.2
5,A21U G71C C93A,≤ -4.2
6,C27A A39G U53C C95A A121U G136C,≤ -4.2
7,G11A G59A,-1.71
8,U56A C57G C87A A119G G126A,≤ -4.2
9,C18U U33A A39U A52C C72U G94A C95U C132U,≤ -4.2
10,G83U C93U,-2.69
11,A24U G34U A47C C95G C108A A110G A138C A147C G152A,≤ -4.2
12,A12U G71A A107C,≤ -4.2
13,A97G C116U G133U,≤ -4.2
14,A60G A107U C131G,≤ -4.2
15,G71U G84A,-2.59
16,C38G G133C A147C,-2.55
17,A3C G70C C87G C96G A107G U146G,≤ -4.2
18,C36A G92A U101A,≤ -4.2
19,A26C A73G C105U U146G,-3.66
20,A17U A30G G42U G81C C85U A122U,≤ -4.2
21,C5A G136A,0.816

row,Variant,polymerase ribozyme fitness (log ratio)
1,A41G G58C U61C U82G C87G U104G C118G G141U,≤ -4.2
2,C51U U53A G65U G84U C93A C116G U135G,≤ -4.2
3,A26C A41C C57G,-3.4
4,C96G C105G G143A,-3.02
5,A19G G83A C85A C96U A97C A119G,≤ -4.2
6,C10A U33G A60G C75A A106U G117U A137C U144A,≤ -4.2
7,A40C A60U,0.0412
8,U7C C18G C43G G48A G58C C63U C76G,≤ -4.2
9,A49U U53A A64G G84U U90C C96A A97G G124U G140A,≤ -4.2
10,G34A A40U U45C C69A C76A C87U G94A A106G A122U G124C U151A,≤ -4.2
11,G48C G84C C85A A110U C125A,≤ -4.2
12,A20G C35G A49C A73G C87G,≤ -4.2
13,A52C G84A G88C,-4.09
14,A3U C76G A89U C93U G100A A137C G143U U144A,≤ -4.2
15,A49C U82A G86A G126A,≤ -4.2
16,C14A C38A G42C U56G G67C G84A C108U U127C,≤ -4.2
17,C93A C116U,-1.88
18,C57U C69G G84A C85G,≤ -4.2
19,U61A G84U C114U,-3.85
20,C79U G88C C93A G136U G143C,≤ -4.2
21,G25U G50C C76A C87A U139G G141C,-4.02

row,Variant,polymerase ribozyme fitness (log ratio)
1,U55A G86U A91U G133U A147U,≤ -4.2
2,G59A C85G G100A A115U U127G G141A,≤ -4.2
3,A21G C27A G46A A73G C87A,≤ -4.2
4,U15G C96U,-1.19
5,A21G A41C G46A G65U,≤ -4.2
6,A12G G83A G126U U134C U148G,≤ -4.2
7,G88U C116U A137C C149G,≤ -4.2
8,U6G U55A,0.402
9,C5A C85U,-0.371
10,U13A C93A,-3.28
11,A49C C93A,≤ -4.2
12,U7C A23G U82G G83A U146G A150G G152C,≤ -4.2
13,A22U A37G A41G G48C G94U,≤ -4.2
14,A20C C36A,-4.06
15,C18U U55G C75U G92C,-1.73
16,C32U U144A,-2.41
17,A3U C87G,-3.94
18,G92U G141C,-1.87
19,C35G U55G G67A G92U,≤ -4.2
20,A20U A40C U55A A73U,-3.94
21,C8A U55A A66C G67U U77A C99U C108U G133C G136A,≤ -4.2

row,Variant,polymerase ribozyme fitness (log ratio)
1,C69U A106C,-2.21
2,U55A C87A,≤ -4.2
3,G59U G86A A147U,-0.0426
4,C5G U33C G50C C57U G71A A73U A91U,≤ -4.2
5,C51U C54G C85U U101G A137G U144G,≤ -4.2
6,U61A C105U U134G U139G,-4.18
7,C5A A40G C87U,-2.81
8,A23U C85U U102A A107U U130G U135G A138C,≤ -4.2
9,C5U A23C A40C A49U G70C G94A,≤ -4.2
10,C8U A37C C93A U151G,≤ -4.2
11,C118U A142C,-0.682
12,A12U C105G,-2.43
13,A21U A24C U56A C96U A138U,≤ -4.2
14,A22U A49G C54U C85U,-0.721
15,C18U U55A C57G A66U U82G G94C A113U,≤ -4.2
16,A22G C93U,-0.637
17,G11U U33G A66C G84A G128U A137C U145A,≤ -4.2
18,A17C C32U,-1.61
19,G25C A60G G86C C105U,-3.36
20,A30G C87U A110U C131A G136U G141U,≤ -4.2
21,U13C C93G C99A U127C,≤ -4.2
